Experimental data: the supplement of paper PMC9170038

Experiments:
[1] = test system: MS2 coat protein; experiment: apparent KD of MS2 coat protein, switch ON state; designed switch direction (-1 OFF switch, 1 ON switch): -1; higher = weaker reporter binding; conditions: FMN input: 0 or 200 uM; Eterna round: R93 (includes R88 designs)
In short: (§1)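 Binding of SNAP-549-labelled MS2 coat protein was measured on designed RNA switches transcribed on-chip from Illumina sequencing clusters. The protein rose in twofold steps from 0.7 or 1.5 nM to 3 µM, with 0.8–1.5 h per step early on and 10–20 min per step later, in 100 mM Tris-HCl pH 7.5, 80 mM KCl, 4 mM MgCl2, without or with constant ligand. Each design's apparent KD is the median of fits to its normalised cluster binding curves.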

[2] = test system: MS2 coat protein; experiment: apparent KD of MS2 coat protein, switch OFF state (with FMN for OFF switches, without FMN for ON switches); designed switch direction (-1 OFF switch, 1 ON switch): -1; higher = weaker reporter binding; conditions: FMN input: 0 or 200 uM; Eterna round: R93 (includes R88 designs)
In short: as §1

| Sequence | apparent KD of MS2 coat protein [1] | apparent KD of MS2 coat protein [2] |
| --- | --- | --- |
| GAAAAACAUGAGGAUCACCCAUGUUAGGAUAUGCUAUGGAAAAUAAAAAAUAAACAUAGCAGAAGGAACAAAAG [Mat - Exclusion 1 - Eli mod - D31] | 20.3 nM | 36.7 nM |
| AAAAAUGCAGGAUAUACGAACAUGUCGAAAGACGUGAAGGGACAUGAGGAUCACCCAUGUAGAAGGGUAAAGAA [Mat - Exclusion 2 - JL mod - D74] | 264 nM | 62.5 nM |
| AGUCGGCGAGGAUAUACAUGAGGAUCACCCAUGUGAGAGAAAAAAGUGAGCAAGAAAAGUAGAAGGCGCUGACA [JL Lego Mod 2] | 54.2 nM | 154 nM |
| AGAAAGUCAGGAUAUGCAGACAAAGCAAAAAAGCAAUGUCUGCAGAAGGGACAUGAGGAUCACCCAUGUAAAGA [Mat - Exclusion 4 - Mayanna - D117] | 50.3 nM | 47.5 nM |
| AGCAAGUUAGGAUAUGCAAAGUCAGGACACACACUGACGAAGCAGAAGGAACAUGAGGAUCACCCAUGUAAGCA [Mat - Exaclusion 4 - Eli mod - D63] | 23.5 nM | 17.1 nM |
| AAGAACCGAGGAUAUACAUGAAAGAAAGAAAAGAAAAGAAAACAUGAGGAUCACCCAUGUAGAAGGCGGAAGAA [EteRNA is fun!] | 27.4 nM | 35.3 nM |
| AACAAGUGAGGAUAUGAAAAUACAACAAACAAACAACUACAUCAGAAGGCACAUGAGGAUCACCCAUGUAAAAC [JR_Exc004_Sub1204] | 19 nM | 20.7 nM |
| AAGAAGUGAGGAUAUCGAAGACUGUCGAAAAGACAGUCGAACGAGAAGGCACAUGAGGAUCACCCAUGUGAAAA [Marsurpial 65% 4] | 22.1 nM | 33.1 nM |
| AAAAAACAUGAGGAUCACCCAUGUGAGGAUAUCCAAAAGAAAAGAAAAGAAAGAAGAAGGAGAAGGCACAAGAA [Khufu] | 55.2 nM | 47.9 nM |
| GGAAAACAUGAGGAUCACCCAUGUGAGGAUAUCGAUGUCCAAUAAAAAGUGCGGGACUCGAGAAGGCACUUGGA [salish99-ex1-41] | 36.2 nM | 29.2 nM |
| AAAAAGGCAGGAUAUGCAUACUCACGGAAAAAAAGGUUGGGACAUGAGGAUCACCCAUGUAGAAGGGCUAAAAA [Dora Explored 15 - Jieux - Exclusion 2] | 85.2 nM | 60.8 nM |
| AAGAAACAUGAGGAUCACCCAUGUGAGGAUAUCAAAAAGAAAAGAAAAGAAAGAAGAAUGAGAAGGCACAAAGG [Mery—] | 30.5 nM | 32.5 nM |
| UUUUGACAUGAGGAUCACCCAUGUCAGGAUAUAGUAGGAAAAAAAAAAAAAAAAACUACUAGAAGGGAUAUGGA [Design 15: Not So Super Stable 1] | 21.7 nM | 40.2 nM |
| AGUCAUACAGGAUAUACAUGAGGAUCACCCAUGUAAAUCCUAAAAAGGUGAUCCUCAUGUAGAAGGGUAUGACA [EX3 219: Super Stable 19] | 21.8 nM | 17.7 nM |
| CAGUACUGAGGAUAUACAUGAGGAUCACCCAUGUGUUCCAGCUAGGAAACUAGCAAAUGUAGAAGGCAGUACUG [Ex3: 827] | 183 nM | 85.8 nM |
| AAAAAGUGAGGAUAUACGAGGAGAAACAACAAACAAACAAAACAUGAGGAUCACCCAUGUAGAAGGCACAAAAA [Ex 2 sub 3] | 22.4 nM | 28.6 nM |
| AACAUACAUGAGGAUCACCCAUGUCAGGAUAUGCCGGGUUAGAGCCAACUAAAAAAACGUAGAAGGGACAAAAA [Bilbo Confounded 6 - Jieux - Exclusion 1] | 62.7 nM | 55.7 nM |
| AAUAAACAUGAGGAUCACCCAUGUGAGGAUAUGGUAUAAUUAGGACAGUAAUGAUAAACCAGAAGGCACAAAUA [JR_Exc001_Sub1103] | 35.6 nM | 42.6 nM |
